Laboratory results taken from patent US20220241413A1, “COMBINATION THERAPIES USING CD-38 ANTIBODIES” (Takeda Pharmaceutical Company Limited, priority 2019, published 2022).

Assays:
[1] = Phase 1 study in healthy subjects (AB79-101): pharmacokinetics; format: in vivo, human; settings: single 0.06 mg/kg IV dose
Protocol: (§1) In a phase 1 study in healthy subjects (Study AB79-101), AB79 reduced the levels of peripheral blood and natural killer (NK) cells >90% from baseline in all subjects receiving a single 0.06 mg/kg IV dose of AB79, with a maximum observed concentration (Cmax) of 0.1 μg/mL. (U.S. Pat. No. 8,362,211; U.S. International Patent Application Serial Nos. PCT/US2019/013547 and PCT/US2019/024431). […] Potent reduction of plasmablasts was observed across cohorts of patients in the RRMM trial (Study AB79-1501). […] Consequently, AB79 may be more efficient at eliminating cells expressing high levels of CD38, which could manifest as higher activity on tumor cells (e.g., improved and deeper response rates across a population of patients with myeloma).
(§2) AB79 IV reduced the levels of peripheral blood NK cells >90% from baseline levels in all subjects receiving a single 0.06 mg/kg IV dose, with a Cmax of 0.1 μg/mL. […] As a potent and convenient second-generation anti-CD38 mAb, AB79 SC warranted therapeutic development for the treatment of multiple myeloma (MM).

[2] = Phase 1 study in healthy subjects (AB79-101): safety; format: in vivo, human
Protocol: as §1, §2

[3] = AB79-1501 study, AB79 monotherapy SC in RRMM: safety; format: in vivo
Text: Patients eligible for study enrollment are refractory or intolerant to at least one PI and at least one IMiD, and have received either ≥3 prior therapies or ≥2 prior therapies, if one of those therapies included a combination of a PI and an IMiD. In the phase 1b dose-escalation part of the study, patients who were previously exposed to an anti-CD38 agent are eligible; however, this criterion is not required. In the phase 2a expansion part of the study, patients were also refractory to at least one anti-CD38 monoclonal therapy at any time during prior treatment. The study was designed to evaluate the safety and tolerability of subcutaneously administered AB79 monotherapy in patients with RRMM, to determine the recommended phase 2 dose (RP2D), and to provide a preliminary assessment of its single-agent activity against RRMM, including in patients who are refractory to daratumumab. Parameters such as safety, tolerability, pharmacokinetics (PK), pharmacodynamics, and disease response were assessed.
Clinical safety data includes that from patients who received a single dose and from patients who received multiple doses in multiple cycles followed by treatment-free periods. Based on the mechanism of action (MOA) of AB79 and the subcutaneous (SC) route of administration, potential adverse events (AEs) included systemic reaction (e.g., cytokine release syndrome (CRS) and hypersensitivity reaction), hematologic effects (e.g., reduced platelet, lymphocyte, neutrophil, and RBC counts), infections (e.g., bacterial and/or viral infections secondary to immune suppression), and injection site reaction (i.e., erythema or tenderness).

[4] = monotherapy SC, total population, 45-600 mg

## AB79: anti-CD38 monoclonal IgG1 antibody; heavy chain SEQ ID NO:11, light chain SEQ ID NO:12
[1]
  maximum observed concentration (Cmax): 100 ng/mL
[2]; 74 healthy subjects, single IV or SC dose escalation
  serious adverse events (SAEs): no serious adverse events
[2]; healthy subjects, all dose cohorts
  neutrophil, lymphocyte, monocyte, RBC and platelet counts: remained within normal ranges
[3]; SC, dosed up to 600 mg
  infusion-related reactions (IRRs): have not been observed
[3]; both reported as not related to AB79
  patients with AEs that led to study discontinuation: Two
[3]; monotherapy SC
  injection site reactions: < 0.25%
  share of AEs overall that were Grade 1 or 2: 55%
  systemic reactions: no systemic reactions
[3]; [4]
  TEAE regardless of causality: abdominal distension: 12%
  TEAE regardless of causality: anemia: 15%
  TEAE regardless of causality: back pain: 12%
  TEAE regardless of causality: cough: 10%
  TEAE regardless of causality: diarrhea: 17%
  TEAE regardless of causality: fatigue: 27%
  TEAE regardless of causality: headache: 15%
  TEAE regardless of causality: hypertension: 12%
  TEAE regardless of causality: insomnia: 22%
  TEAE regardless of causality: nausea: 17%
  TEAE regardless of causality: neutropenia: 12%
  TEAE regardless of causality: pneumonia: 10%
  TEAE regardless of causality: upper respiratory infection: 27%
[3]; monotherapy cohorts
  dose-limiting toxicities (DLTs): no DLTs
  maximum tolerated dose (MTD): has not been identified
[3]; patient with past medical history of diverticulitis
  drug-related SAEs (Diverticulitis): One
